Measurements taken from patent US12072338B2, “Pharmaceutical peptides for the treatment of inflammatory diseases” (PROTAGONISTS LTD., priority 2007, dated 2024).

Assays:
IP-10 = biological target: T1, IP-10 (Homo sapiens, UniProt P02778); experiment: Micro-array analysis of chemokine binding peptides: IP-10; conditions: limit = start of the upper 75% of that peptide's response range
T1 construct: purchased 300-12
T1 sequence (P02778 22-98): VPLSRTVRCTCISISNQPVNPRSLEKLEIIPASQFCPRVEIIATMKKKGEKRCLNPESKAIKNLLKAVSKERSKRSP
Protocol: (§1) (1) Printing: Chemokine (CK) solution (in water) was serially diluted with Print Reagent (GenTel BioSurfaces USA) to final concentrations of 50 μg and 25 μg/ml. BSA/BSA-Biotin control solutions (in water) were diluted with Print Reagent to 100 μg/ml. Amplified stock of M13 phage control (M13KEgIII Cloning Vector, New England Biolabs, Cat.No.E8101S) was stored in Tris Buffered Saline (TBS; pH7.5, 4° C.) and diluted with Print Reagent to the working titre (10^8 pfu/μl). An automated spotting robot (16 pin print tool, 0.4 mm head; BioRobotics, UK) was used to print the CK/BSA control/M13 control, 5 repeats per sample (CK 25 μg/ml and 50 μg/ml; BSA 100 μg/ml; M13 20 μl), on PATH Protein Microarray Slides (GenTel, Prod.No. 2-1005/-1025) at […], and 50-70% relative humidity. Printed micro-array slides were stored at Room Temperature (RT) or 4° C. for at least 24 h before use.
(§2) (2) Blocking: Block Buffer (500 μl/partition; PATHblock, GenTel, Prod.No. 2-1014) was applied to the slide for 1 hour at room temp (RT). After removal of Block Buffer, the slide was air dried for 25 minutes;
(§3) (3) Phage Presented Peptide Binding: Amplified recombinant phage stock was stored in TBS and diluted with Wash Buffer to working titer (10^7 pfu/μl). Recombinant phage suspension (300 μl) was applied per partition and incubated at RT for 1 hour with gentle agitation.
(§4) (4) First Washing: The slides were washed twice with Wash Buffer 300 μl/partition).
(§5) (5) Primary Antibody (Ab) Labeling: The slides were incubated with the Primary Ab (1 mg/ml diluted ×2500 (Wash Reagent), 300 μl; Mouse Anti-M13 monoclonal Ab; Amersham Biosciences, UK; Product Code 27-9420-01) for 45 minutes at RT.
(§6) (6) Second Washing: The slides were washed twice with Wash Buffer (300 μl/partition).
(§7) (7) Secondary Ab Labeling: The slides were incubated with Secondary Ab (1.5 mg/ml diluted ×5000 (Wash Reagent), 300 μl; Cy3-conjugated AffiniPure Goat Anti-Mouse IgG; Jackson ImmunoReserch Labs, USA; Product Code 115-165-062).
(§8) (8) Third Washing: The slides were washed twice with Wash Buffer (300 μl/partition).
(§9) (9) Rinse: the slides were rinsed twice with Rinse Buffer (PATHrinse, GenTel, Prod.No. 2-1018) then dried well.
(§10) (10) Scanning: The peptide-bound, labeled slide was scanned (Laser Intensity 80%, Gain 80%, Resolution 10 μm) with a ScanArray Life Scanner (Packard BioChip Technologies, USA).
(§11) (11) Analysis: Quantitative analysis of micro-array was performed by the SpotReader program of Niles Scientific (USA) and presented as Relative Fluorescence (RF) as a function of CK concentration. Micro-array readout (Cy3 fluorescence) was quantified to determine the relative binding affinities of a CBP for the CKs and by inference, the specificity of the CBP for binding to a CK.

I-TAC = biological target: T2, I-TAC (Homo sapiens, UniProt O14625); experiment: Micro-array analysis of chemokine binding peptides: I-TAC; conditions: limit = start of the upper 75% of that peptide's response range
T2 construct: purchased 300-46
T2 sequence (O14625 22-94): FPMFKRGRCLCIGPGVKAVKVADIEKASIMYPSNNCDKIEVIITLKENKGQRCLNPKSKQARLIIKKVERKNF
Protocol: as §1, §2, §3, §4, §5, §6, §7, §8, §9, §10, §11

Eotaxin 3 = biological target: T3, Eotaxin 3 (Homo sapiens, UniProt Q9Y258); experiment: Micro-array analysis of chemokine binding peptides: Eotaxin 3; conditions: limit = start of the upper 75% of that peptide's response range
T3 construct: purchased 300-48
T3 sequence (Q9Y258 24-94): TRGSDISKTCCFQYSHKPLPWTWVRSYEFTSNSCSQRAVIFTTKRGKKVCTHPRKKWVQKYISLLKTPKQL
Protocol: as §1, §2, §3, §4, §5, §6, §7, §8, §9, §10, §11

SDF1-α = biological target: T4, SDF1-α (Homo sapiens, UniProt P48061); experiment: Micro-array analysis of chemokine binding peptides: SDF1-α
T4 construct: purchased 300-28a
Protocol: as §1, §2, §3, §4, §5, §6, §7, §8, §9, §10, §11

SDF1-β = biological target: T5, SDF1-β (Homo sapiens, UniProt P48061); experiment: Micro-array analysis of chemokine binding peptides: SDF1-β
T5 construct: purchased 300-28b
Protocol: as §1, §2, §3, §4, §5, §6, §7, §8, §9, §10, §11

BCA-1 = biological target: T6, BCA-1 (Homo sapiens, UniProt O43927); experiment: Micro-array analysis of chemokine binding peptides: BCA-1
T6 construct: purchased 300-47
T6 sequence (O43927 23-109): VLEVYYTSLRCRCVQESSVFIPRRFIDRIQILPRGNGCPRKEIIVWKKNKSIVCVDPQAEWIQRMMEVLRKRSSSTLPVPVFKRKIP
Protocol: as §1, §2, §3, §4, §5, §6, §7, §8, §9, §10, §11

TECK = biological target: T7, TECK (Homo sapiens, UniProt O15444); experiment: Micro-array analysis of chemokine binding peptides: TECK
T7 construct: purchased 300-45
T7 sequence (O15444 24-150): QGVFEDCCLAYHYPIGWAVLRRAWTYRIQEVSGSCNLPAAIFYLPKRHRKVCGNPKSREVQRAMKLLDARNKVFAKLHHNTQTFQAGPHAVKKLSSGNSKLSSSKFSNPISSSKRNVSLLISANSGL
Protocol: as §1, §2, §3, §4, §5, §6, §7, §8, §9, §10, §11

Exodus-2 = biological target: T8, Exodus-2 (Homo sapiens, UniProt O00585); experiment: Micro-array analysis of chemokine binding peptides: Exodus-2
T8 construct: purchased 300-35
T8 sequence (O00585 24-134): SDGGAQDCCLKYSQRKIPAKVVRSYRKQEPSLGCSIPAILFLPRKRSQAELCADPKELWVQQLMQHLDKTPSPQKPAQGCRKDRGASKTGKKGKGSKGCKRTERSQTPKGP
Protocol: as §1, §2, §3, §4, §5, §6, §7, §8, §9, §10, §11

C-TAC = biological target: T9, C-TAC (Homo sapiens, UniProt Q9Y4X3); experiment: Micro-array analysis of chemokine binding peptides: C-TAC
T9 construct: purchased 300-54
T9 sequence (Q9Y4X3 25-112): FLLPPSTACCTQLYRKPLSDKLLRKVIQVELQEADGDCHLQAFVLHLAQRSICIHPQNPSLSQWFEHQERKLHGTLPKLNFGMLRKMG
Protocol: as §1, §2, §3, §4
(5) Primary Antibody (Ab) Labeling: The slides were incubated with the Primary Ab (1 mg/ml diluted ×2500 (Wash Reagent), 300 μl; Mouse Anti-M13 monoclonal Ab; Amersham Biosciences, UK; Product Code 27-9420-01) for 45 minutes at RT. […]
as §11

T4 sequence (P48061 22-89 limits assumed): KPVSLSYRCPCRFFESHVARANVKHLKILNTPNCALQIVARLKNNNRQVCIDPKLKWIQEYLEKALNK
T5 sequence (P48061 22-93): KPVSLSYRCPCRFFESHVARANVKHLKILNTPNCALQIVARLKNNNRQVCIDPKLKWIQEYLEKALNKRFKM

binding to IP-10 with relatively high affinity (Relative Fluorescence Units) (IP-10): > 10,000 RFU
binding to I-TAC with relatively high affinity (Relative Fluorescence Units) (I-TAC): > 10,000 RFU
binding to Eotaxin 3 with relatively high affinity (Relative Fluorescence Units) (Eotaxin 3): > 10,000 RFU
binding to SDF1-α, stated in words (SDF1-α): bound
binding to SDF1-β, stated in words (SDF1-β): bound
binding to BCA-1, stated in words (BCA-1): bound
binding to TECK, stated in words (TECK): bound
binding to Exodus-2, stated in words (Exodus-2): bound
binding to C-TAC, stated in words (C-TAC): bound
Substance: NAMCK (listed as Homo sapiens) [Ph-p8.11]
